Data published in patent US20240117066A1 (Memorial Sloan Kettering, published 2024).

B1: 11E10 antibody (antibody, V domains shown)
VH: QVQLQQSGPELVKPGASVKMSCKTSGYTFTDYVITWVKQRTGQGLEWIGEIYPRSGNTYYNAKFRGKATLTADKSSNTAYMQLSSLTSEDSAVYFCARGGYYDFDFFAMDYWGQGTSVTVSS
VL: DIVMTQAAPSVPVTPGESVSISCRSSKSLLHSNGNTYLYWFLQRPGQSPQLLIYRMSNLASGVPDRFSGSGSGTAFTLRISRVEAEDVGVYYCMQHLEYPYTFGGGTKLEIK
B2: 8B1 antibody (antibody, V domains shown)
VH: QIQLVQSGPELKKPGETVKISCKASGYTFTNYGMNWVKQAPGKGLKWMGWINTNTGEPTYAEEFKGRFAFSLETSASTAYLQINNLKNEDTATYFCGDYEFAYWGQGTLVTVSA
VL: DIQMTQSPASLSVSVGETVTITCRASENIYSNLAWYQQKQGKSPQLLVYAATNLADGVPSRFSGSGSGTQYSLKINSLQSEDFGSYYCQHFWGTPWTFGGGTKLEIK
B3: 6C8 antibody (antibody, V domains shown)
VH: EVQLVESGGGLVQPGGSLKISCAASGFTFTNYGMSWVRQTPDKRLELVATTNSNGGATYYPDSVKGRFTISRDNAKNTLYLQMSSLKSEDTAMYFCTRDRDYYGGSMDYWGQGTSVTVSS
VL: DIVMSQSPSSLAVSVGERVSMSCKSSQSLLYSSDQKNYLAWYQQKPGQSPELLIYWASTRESGVPDRFTGSGSGTDFTLTISSVKAEDLAIYYCQQYYSYPFTFGSGTKLEIK
B4: 17C9 antibody (antibody, V domains shown)
VH: EVQLVESGGGLVKPGGSLKLSCAASGFTFSSYAMSWVRQSPEKRLEWVAEISSGGTYTYYPDTVTGRFTISRDNAKNTLYLEMSSLRSEDTAMYYCARDDGFYAWFGYWGQGTLVTVSA
VL: not shown
B5: 14C5 antibody (antibody, V domains shown)
VH: QVQLKESGPGLVAPSQSLSITCTVSGFSLTSYGVHWVRQPPGKGLEWLGVLWAGGSTDYNSALMSRLSISKDNSKSQVFLKMNSLQTDDTAMYYCARGGLRQVFAYWGQGTLVTVSA
VL: DVLMTQTPLSLPVSLGDQASISCRSSQSIVYSNGNTYLEWYLQKPGQSPKLLIYKVSNRFSGVPDRFSGSGSGTDFTLKISRVEAEDLGVYYCFQGSHVPYTFGGGTKLEMK

The binders below were run against T1, recombinant human uPAR protein (Leu23-Arg303) with a C-terminal 6-his tag (human, UniProt Q03405 23-303) (assay: Biacore (SPR), single cycle kinetics).
T1 construct: also called CD87
T1 sequence (Q03405 other isoform, or with tags, fused parts or gaps): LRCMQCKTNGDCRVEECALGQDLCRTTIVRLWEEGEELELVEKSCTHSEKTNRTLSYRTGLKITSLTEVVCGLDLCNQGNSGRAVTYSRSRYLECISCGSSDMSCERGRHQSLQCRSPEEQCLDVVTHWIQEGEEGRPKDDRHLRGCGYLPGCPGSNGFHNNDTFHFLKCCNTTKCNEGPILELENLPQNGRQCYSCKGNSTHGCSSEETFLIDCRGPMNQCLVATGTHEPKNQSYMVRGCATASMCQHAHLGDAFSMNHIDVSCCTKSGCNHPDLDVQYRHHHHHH
Protocol: Six clones 8B1, 11E10, 17C9, 19D7, 6C8, and 14C5 were produced. Next, the binding affinities KD of 8B1, 11E10, 17C9, 19D7, 6C8, and 14C5 antibodies were assessed. The KD values were calculated using the Biacore single cycle kinetics analysis.
A Kd of 95.2 nM was found for B1 in this work.
A Kd of 3.48 nM was found for B2 in this work.
A Kd of 6.61 nM was found for B3 in this work.
A Kd of 18.6 nM was found for B4 in this work.
A Kd of 42.4 nM was found for B5 in this work.
